The assay addresses Zn2+. Briefly: Zincon assay. The conditions noted are these: purified Vif complex denatured and deproteinated; metal ions measured in supernatant; parent: est. 1.3; read off a plot.
For the substance “maedi–visna virus (MVV) Vif, WT, residues 1-230, N-terminal 6xHis tagged (from UniProt P69715) H186N”, the other: Zn2+:Protein Ratio turned out to be 1.1.

For “maedi–visna virus (MVV) Vif, WT, residues 1-230, N-terminal 6xHis tagged (from UniProt P69715) C135S”, the other: Zn2+:Protein Ratio turned out to be 0.09.

As to “maedi–visna virus (MVV) Vif, WT, residues 1-230, N-terminal 6xHis tagged (from UniProt P69715) C207S”, the other: Zn2+:Protein Ratio turned out to be 0.93.

“maedi–visna virus (MVV) Vif, WT, residues 1-230, N-terminal 6xHis tagged (from UniProt P69715) H181N”: the other: Zn2+:Protein Ratio came to 1.2.

On to “maedi–visna virus (MVV) Vif, WT, residues 1-230, N-terminal 6xHis tagged (from UniProt P69715) C157S”, for which the other: Zn2+:Protein Ratio worked out at 0.2.

“maedi–visna virus (MVV) Vif, WT, residues 1-230, N-terminal 6xHis tagged (from UniProt P69715) H129N”: the other: Zn2+:Protein Ratio amounted to 0.92.

Consider “maedi–visna virus (MVV) Vif, WT, residues 1-230, N-terminal 6xHis tagged (from UniProt P69715) C160S”, for which the other: Zn2+:Protein Ratio turned out to be 0.17.

Regarding “maedi–visna virus (MVV) Vif, WT, residues 1-230, N-terminal 6xHis tagged (from UniProt P69715) C222S”, the other: Zn2+:Protein Ratio turned out to be 0.77.

As to “maedi–visna virus (MVV) Vif, WT, residues 1-230, N-terminal 6xHis tagged (from UniProt P69715) C137S”, the other: Zn2+:Protein Ratio turned out to be 0.07.

With “maedi–visna virus (MVV) Vif, WT, residues 1-230, N-terminal 6xHis tagged (from UniProt P69715) H7N”, the other: Zn2+:Protein Ratio was 1.2.

For the substance “maedi–visna virus (MVV) Vif, WT, residues 1-230, N-terminal 6xHis tagged (from UniProt P69715) H152N”, the other: Zn2+:Protein Ratio amounted to 0.97.

The record behind these values is PMC7949081.
